The values that follow come from article PMC2190117.

Where “and” joins values, the source holds several entries; their conditions need not be identical. Equal entries are not always repeated. Where two headings read alike, the source gives them in different places.

For test [1], the target named is C3-C3b receptor (human (endogenous in Raji, Daudi and HPL)). Description: rosette formation.
The target is the same in test [2]. Description: immunostaining of cells or tissue.
Test [3] has the same target. Description: immunostaining of cells or tissue. The source holds these as a separate data set.
Test [4] concerns the target human C3b (human) (UniProt P01024). Description: immunostaining of cells or tissue.
UniProt P01024, sequence (P01024 23-667, chain 1 of 2): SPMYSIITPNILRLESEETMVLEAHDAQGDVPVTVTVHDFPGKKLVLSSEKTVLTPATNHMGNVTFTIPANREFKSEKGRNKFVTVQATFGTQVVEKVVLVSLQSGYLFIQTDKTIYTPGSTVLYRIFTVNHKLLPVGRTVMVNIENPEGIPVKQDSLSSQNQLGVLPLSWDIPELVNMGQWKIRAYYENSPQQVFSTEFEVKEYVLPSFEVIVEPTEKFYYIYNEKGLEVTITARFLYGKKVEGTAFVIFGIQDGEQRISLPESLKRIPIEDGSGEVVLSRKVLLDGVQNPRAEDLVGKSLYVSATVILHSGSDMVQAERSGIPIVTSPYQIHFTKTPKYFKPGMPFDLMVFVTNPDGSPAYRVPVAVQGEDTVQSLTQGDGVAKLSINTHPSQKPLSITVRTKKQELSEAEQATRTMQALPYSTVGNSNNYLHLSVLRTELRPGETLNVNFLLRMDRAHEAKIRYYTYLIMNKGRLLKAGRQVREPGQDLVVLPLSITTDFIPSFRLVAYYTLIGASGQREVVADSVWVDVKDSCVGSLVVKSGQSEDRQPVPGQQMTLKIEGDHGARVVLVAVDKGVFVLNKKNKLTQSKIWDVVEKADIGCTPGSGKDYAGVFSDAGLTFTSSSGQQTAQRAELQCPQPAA
UniProt P01024, sequence (P01024 749-1663, chain 2 of 2): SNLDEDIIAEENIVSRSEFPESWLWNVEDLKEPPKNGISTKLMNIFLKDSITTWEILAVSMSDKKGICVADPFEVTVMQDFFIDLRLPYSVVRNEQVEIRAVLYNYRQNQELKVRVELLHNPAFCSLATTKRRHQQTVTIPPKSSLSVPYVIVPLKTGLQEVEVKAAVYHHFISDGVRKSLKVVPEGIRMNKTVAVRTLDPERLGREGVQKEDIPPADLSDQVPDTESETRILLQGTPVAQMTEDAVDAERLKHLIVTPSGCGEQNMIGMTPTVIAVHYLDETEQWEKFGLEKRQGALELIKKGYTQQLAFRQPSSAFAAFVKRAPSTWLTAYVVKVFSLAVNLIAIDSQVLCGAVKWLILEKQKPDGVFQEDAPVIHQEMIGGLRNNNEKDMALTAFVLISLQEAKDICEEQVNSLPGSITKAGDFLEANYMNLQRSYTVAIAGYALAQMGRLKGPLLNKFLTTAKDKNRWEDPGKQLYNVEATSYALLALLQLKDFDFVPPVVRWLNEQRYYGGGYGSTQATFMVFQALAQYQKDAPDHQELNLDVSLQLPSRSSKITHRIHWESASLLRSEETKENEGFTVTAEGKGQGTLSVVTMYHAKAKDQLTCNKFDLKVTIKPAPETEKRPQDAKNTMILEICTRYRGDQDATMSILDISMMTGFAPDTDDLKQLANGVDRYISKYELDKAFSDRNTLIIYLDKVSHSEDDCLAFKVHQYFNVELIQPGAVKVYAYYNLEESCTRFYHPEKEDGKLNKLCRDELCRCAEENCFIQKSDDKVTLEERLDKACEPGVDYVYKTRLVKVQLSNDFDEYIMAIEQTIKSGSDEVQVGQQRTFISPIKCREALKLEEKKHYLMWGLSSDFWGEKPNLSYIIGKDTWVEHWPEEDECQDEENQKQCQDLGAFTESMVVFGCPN
Test [5] has the same target. Description: immunostaining of cells or tissue. The source holds these as a separate data set.
For test [6] the target is unchanged. Description: immunostaining of cells or tissue. The source holds these as a separate data set.
Test [7] has the same target. Description: immunostaining of cells or tissue. This is another data set of the same source.
For test [8] the target is unchanged. Description: immunostaining of cells or tissue. This is another data set of the same source.
For test [9] the target is unchanged. Description: immunostaining of cells or tissue. The source holds these as a separate data set.

As for “human C3b (from UniProt P01024 23-667; P01024 749-1663) (domain or fragment)”, the percent rosette-forming cells in test [1] is 100% and 98%. Moreover, the results for the percent cells binding in test [2] and in [3] were 100% and 90%, respectively. Also, the percent immunofluorescence positive cells in test [2] came out at 98%.

As for “human complement component C3 (from UniProt P01024 23-667; P01024 672-1663) (natural protein)”, the percent cells binding in test [2] was determined as 100%; in test [3] it was 90%. The percent immunofluorescence positive cells in test [2] and in test [3] was 100% each time.

Regarding factor B (natural protein), the percent immunofluorescence positive cells in test [4] is 2%; in test [5], 5%; in [6] it was 93%; in [7], 95%; in test [8], 89%; in test [9], 5%.
